# According to paper PMC8624160:
# B1: SITS-Thrombin27 5' (structured_DNA)
# DNA: GTCCGTGGTAGGGCAGGTTGGGGTGAC
# modifications: 5' NH2-(CH2)6 linker coupled to SITS
# B2: SITS-Thrombin15 3' (structured_DNA)
# DNA: GGTTGGTGTGGTTGG
# modifications: 3' (CH2)6-NH2 linker coupled to SITS
# B3: SITS-Thrombin15 5' (structured_DNA)
# DNA: GGTTGGTGTGGTTGG
# modifications: 5' NH2-(CH2)6 linker coupled to SITS
# B4: SITS-Thrombin29 3' (structured_DNA)
# DNA: AGTCCGTGGTAGGGCAGGTTGGGGTGACT
# modifications: 3' (CH2)6-NH2 linker coupled to SITS
# B5: SITS-Thrombin29 5' (structured_DNA)
# DNA: AGTCCGTGGTAGGGCAGGTTGGGGTGACT
# modifications: 5' NH2-(CH2)6 linker coupled to SITS
# B6: SITS-Thrombin27 3' (structured_DNA)
# DNA: GTCCGTGGTAGGGCAGGTTGGGGTGAC
# modifications: 3' (CH2)6-NH2 linker coupled to SITS
# Biological target: thrombin (UniProt P00734;P00734 328-363;364-622)
# Test: fluorescence attenuation kinetics (kapp); Binding buffer, salt, pH and temperature not given in the material (PBS listed among reagents); ex/em 333/426 nm, constant SITS-aptamer, thrombin titrated, trip
row,Binder,Kd
1,B1,1590 nM
2,B2,4980 nM
3,B3,10800 nM
4,B4,180 nM
5,B5,851 nM
6,B6,437 nM
